We go through one substance from US20230304047A1.

The assay has as its target wildtype S. pyogenes Cas9 (S. pyogenes) (UniProt Q99ZW2). Briefly: cell-based or functional assay.
Chain of UniProt Q99ZW2 (Q99ZW2 whole entry): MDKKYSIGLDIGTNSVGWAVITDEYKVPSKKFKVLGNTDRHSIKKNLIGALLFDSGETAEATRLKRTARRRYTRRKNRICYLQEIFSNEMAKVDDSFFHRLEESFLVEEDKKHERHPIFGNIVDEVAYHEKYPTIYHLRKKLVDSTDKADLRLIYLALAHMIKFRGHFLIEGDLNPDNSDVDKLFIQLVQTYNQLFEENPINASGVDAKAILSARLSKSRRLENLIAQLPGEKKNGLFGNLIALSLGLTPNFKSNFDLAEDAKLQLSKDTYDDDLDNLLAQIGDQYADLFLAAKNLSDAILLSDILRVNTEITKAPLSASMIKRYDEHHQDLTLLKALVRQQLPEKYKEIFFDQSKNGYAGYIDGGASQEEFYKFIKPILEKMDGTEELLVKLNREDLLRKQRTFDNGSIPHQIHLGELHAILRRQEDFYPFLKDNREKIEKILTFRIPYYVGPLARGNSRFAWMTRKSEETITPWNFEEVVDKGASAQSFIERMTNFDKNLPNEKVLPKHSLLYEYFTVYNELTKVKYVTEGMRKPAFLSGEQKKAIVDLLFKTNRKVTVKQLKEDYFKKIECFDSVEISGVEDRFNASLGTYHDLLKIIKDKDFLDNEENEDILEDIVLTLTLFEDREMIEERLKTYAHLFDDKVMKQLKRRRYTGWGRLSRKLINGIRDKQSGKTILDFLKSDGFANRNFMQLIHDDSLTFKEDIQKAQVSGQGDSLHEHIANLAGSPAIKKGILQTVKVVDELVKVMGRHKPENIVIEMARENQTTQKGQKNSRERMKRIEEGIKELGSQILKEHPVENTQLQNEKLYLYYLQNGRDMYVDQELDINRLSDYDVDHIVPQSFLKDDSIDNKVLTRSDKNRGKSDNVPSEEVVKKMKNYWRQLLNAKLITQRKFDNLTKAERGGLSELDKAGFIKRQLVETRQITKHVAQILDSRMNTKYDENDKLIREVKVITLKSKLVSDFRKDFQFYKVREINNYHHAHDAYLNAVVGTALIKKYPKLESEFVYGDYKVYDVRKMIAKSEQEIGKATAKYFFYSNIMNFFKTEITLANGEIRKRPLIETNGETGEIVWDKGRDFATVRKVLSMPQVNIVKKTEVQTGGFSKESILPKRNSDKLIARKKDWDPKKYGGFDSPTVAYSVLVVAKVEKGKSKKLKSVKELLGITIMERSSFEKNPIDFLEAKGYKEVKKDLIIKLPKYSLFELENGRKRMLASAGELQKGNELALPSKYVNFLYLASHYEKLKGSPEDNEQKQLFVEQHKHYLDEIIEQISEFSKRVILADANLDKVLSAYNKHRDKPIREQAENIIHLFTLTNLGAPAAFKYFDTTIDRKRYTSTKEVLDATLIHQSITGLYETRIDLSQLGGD

For AcrIIA2-Cdt1 fusion protein, the HDR (GFP correction) in RPE1 reporter cells deficient of p53, AcrIIA2-Cdt1 protein co-transfected with WT CRISPR-Cas9 RNP is 2 fold and the HDR (GFP correction) in RPE1 reporter cells, AcrIIA2-Cdt1 protein co-transfected with WT CRISPR-Cas9 RNP was determined as 3 fold.
